B1: ZNF649 (parent)
chain: LVAHQRYHTGKTPFVCPECGQPCS
B2: AUP1 (parent)
chain: FCASTRLPPTPLLLFPEEEATNGR

Variants of: B1
Assay: protein stability index of a GFP-peptide fusion (GPS, HEK-293T) (PSI 1-6); higher = more stable
Details: c terminus: a fixed tail appended
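Note: lentivirally expressed fusions sorted by FACS into six bins by GFP to DsRed ratio, PSI derived from sequencing read proportions per bin multiplied by bin number.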

Compared with LVAHHRYHTGKTPFVCPECGQPCS [Q5H], LVTHQRYHTGKTPFVCPECGQPCS [A3T] is higher in protein stability index: 3.11 for the first, 3.47 for the second.

First: LVSHQRYHTGKTPFVCPECGQPCS [A3S]
Second: LVQHQRYHTGKTPFVCPECGQPCS [A3Q]
The protein stability index of the first is lower: 3.58 for the first, 3.68 for the second.

First: LVDHQRYHTGKTPFVCPECGQPCS [A3D]
Second: LVEHQRYHTGKTPFVCPECGQPCS [A3E]
The protein stability index of the first is higher: 4.3 for the first, 4.14 for the second.

First: LVIHQRYHTGKTPFVCPECGQPCS [A3I]
Second: LVCHQRYHTGKTPFVCPECGQPCS [A3C]
The protein stability index of the first is lower: 3.32 for the first, 4.11 for the second.

Going from LVNHQRYHTGKTPFVCPECGQPCS [A3N] to LVWHQRYHTGKTPFVCPECGQPCS [A3W], the protein stability index falls from 2.71 to 2.57.

Going from LVMHQRYHTGKTPFVCPECGQPCS [A3M] to LVGHQRYHTGKTPFVCPECGQPCS [A3G], the protein stability index rises from 2.71 to 3.68.

Compared with LVFHQRYHTGKTPFVCPECGQPCS [A3F], LVHHQRYHTGKTPFVCPECGQPCS [A3H] is higher in protein stability index: 2.23 for the first, 3.59 for the second.

Compared with LVLHQRYHTGKTPFVCPECGQPCS [A3L], LVKHQRYHTGKTPFVCPECGQPCS [A3K] is higher in protein stability index: 2.69 for the first, 3.41 for the second.

Going from LVRHQRYHTGKTPFVCPECGQPCS [A3R] to LVPHQRYHTGKTPFVCPECGQPCS [A3P], the protein stability index rises from 3.14 to 3.24.

Going from LVVHQRYHTGKTPFVCPECGQPCS [A3V] to LVYHQRYHTGKTPFVCPECGQPCS [A3Y], the protein stability index falls from 2.46 to 2.38.

Compared with LWAHQRYHTGKTPFVCPECGQPCS [V2W], LIAHQRYHTGKTPFVCPECGQPCS [V2I] is higher in protein stability index: 2.57 for the first, 3.1 for the second.

Compared with LLAHQRYHTGKTPFVCPECGQPCS [V2L], LMAHQRYHTGKTPFVCPECGQPCS [V2M] is higher in protein stability index: 3.09 for the first, 3.34 for the second.

First: LKAHQRYHTGKTPFVCPECGQPCS [V2K]
Second: LDAHQRYHTGKTPFVCPECGQPCS [V2D]
The protein stability index of the first is lower: 2.91 for the first, 3.87 for the second.

Compared with LQAHQRYHTGKTPFVCPECGQPCS [V2Q], LSAHQRYHTGKTPFVCPECGQPCS [V2S] is lower in protein stability index: 3.62 for the first, 3.49 for the second.

First: LTAHQRYHTGKTPFVCPECGQPCS [V2T]
Second: LPAHQRYHTGKTPFVCPECGQPCS [V2P]
The protein stability index of the first is higher: 4.06 for the first, 3.5 for the second.

Going from LEAHQRYHTGKTPFVCPECGQPCS [V2E] to LRAHQRYHTGKTPFVCPECGQPCS [V2R], the protein stability index falls from 4.4 to 3.36.

Compared with LAAHQRYHTGKTPFVCPECGQPCS [V2A], LFAHQRYHTGKTPFVCPECGQPCS [V2F] is lower in protein stability index: 3.28 for the first, 2.78 for the second.

Compared with LGAHQRYHTGKTPFVCPECGQPCS [V2G], LNAHQRYHTGKTPFVCPECGQPCS [V2N] is lower in protein stability index: 3.81 for the first, 3.39 for the second.

Going from LYAHQRYHTGKTPFVCPECGQPCS [V2Y] to LCAHQRYHTGKTPFVCPECGQPCS [V2C], the protein stability index rises from 2.81 to 4.4.

With LHAHQRYHTGKTPFVCPECGQPCS [V2H] the protein stability index was 4.09.

Variants of: B2
Assay: as above
Details: c terminus: a fixed tail appended

Compared with FCASTRLPPTPLLLFPEEEATNER [G23E], FCASTRLPPTPLLLFPEEEATNNR [G23N] is lower in protein stability index: 3.33 for the first, 2.97 for the second.

Compared with FCASTRLPPTPLLLFPEEEATNKR [G23K], FCASTRLPPTPLLLFPEEEATNCR [G23C] is higher in protein stability index: 2.62 for the first, 2.65 for the second.

Compared with FCASTRLPPTPLLLFPEEEATNMR [G23M], FCASTRLPPTPLLLFPEEEATNQR [G23Q] is higher in protein stability index: 2.54 for the first, 3.09 for the second.

First: FCASTRLPPTPLLLFPEEEATNIR [G23I]
Second: FCASTRLPPTPLLLFPEEEATNYR [G23Y]
The protein stability index of the first is lower: 2.19 for the first, 2.32 for the second.

Compared with FCASTRLPPTPLLLFPEEEATNSR [G23S], FCASTRLPPTPLLLFPEEEATNAR [G23A] is lower in protein stability index: 2.94 for the first, 2.86 for the second.

Going from FCASTRLPPTPLLLFPEEEATNFR [G23F] to FCASTRLPPTPLLLFPEEEATNLR [G23L], the protein stability index rises from 2 to 2.67.

Going from FCASTRLPPTPLLLFPEEEATNVR [G23V] to FCASTRLPPTPLLLFPEEEATNRR [G23R], the protein stability index falls from 2.91 to 2.59.

Going from FCASTRLPPTPLLLFPEEEATNHR [G23H] to FCASTRLPPTPLLLFPEEEATNTR [G23T], the protein stability index falls from 2.82 to 2.76.

Going from FCASTRLPPTPLLLFPEEEATNPR [G23P] to FCASTRLPPTPLLLFPEEEATNDR [G23D], the protein stability index rises from 2.75 to 3.33.

Compared with FCASTRLPPTPLLLFPEEEATNWR [G23W], FCASTRLPPTPLLLFPEEEATRGR [N22R] is higher in protein stability index: 1.69 for the first, 2.73 for the second.

First: FCASTRLPPTPLLLFPEEEATVGR [N22V]
Second: FCASTRLPPTPLLLFPEEEATMGR [N22M]
The protein stability index of the first is lower: 2.16 for the first, 2.56 for the second.

Going from FCASTRLPPTPLLLFPEEEATHGR [N22H] to FCASTRLPPTPLLLFPEEEATYGR [N22Y], the protein stability index falls from 2.95 to 2.82.

Compared with FCASTRLPPTPLLLFPEEEATQGR [N22Q], FCASTRLPPTPLLLFPEEEATTGR [N22T] is higher in protein stability index: 3.18 for the first, 3.27 for the second.

First: FCASTRLPPTPLLLFPEEEATIGR [N22I]
Second: FCASTRLPPTPLLLFPEEEATWGR [N22W]
The protein stability index of the first is lower: 2.11 for the first, 2.27 for the second.

Going from FCASTRLPPTPLLLFPEEEATFGR [N22F] to FCASTRLPPTPLLLFPEEEATLGR [N22L], the protein stability index rises from 2.18 to 2.19.

Compared with FCASTRLPPTPLLLFPEEEATGGR [N22G], FCASTRLPPTPLLLFPEEEATCGR [N22C] is higher in protein stability index: 2.16 for the first, 2.32 for the second.

Compared with FCASTRLPPTPLLLFPEEEATKGR [N22K], FCASTRLPPTPLLLFPEEEATDGR [N22D] is higher in protein stability index: 2.75 for the first, 3.1 for the second.

First: FCASTRLPPTPLLLFPEEEATSGR [N22S]
Second: FCASTRLPPTPLLLFPEEEATEGR [N22E]
The protein stability index of the first is lower: 2.5 for the first, 3.39 for the second.

Compared with FCASTRLPPTPLLLFPEEEATNGN [R24N], FCASTRLPPTPLLLFPEEEATNGE [R24E] is higher in protein stability index: 3.01 for the first, 3.4 for the second.

Going from FCASTRLPPTPLLLFPEEEATNGD [R24D] to FCASTRLPPTPLLLFPEEEATNGG [R24G], the protein stability index rises from 3.3 to 3.69.

Going from FCASTRLPPTPLLLFPEEEATNGC [R24C] to FCASTRLPPTPLLLFPEEEATNGY [R24Y], the protein stability index falls from 2.72 to 1.88.

First: FCASTRLPPTPLLLFPEEEATNGA [R24A]
Second: FCASTRLPPTPLLLFPEEEATNGM [R24M]
The protein stability index of the first is higher: 3.27 for the first, 2.38 for the second.

First: FCASTRLPPTPLLLFPEEEATNGK [R24K]
Second: FCASTRLPPTPLLLFPEEEATNGF [R24F]
The protein stability index of the first is higher: 3.12 for the first, 2.39 for the second.

First: FCASTRLPPTPLLLFPEEEATNGV [R24V]
Second: FCASTRLPPTPLLLFPEEEATNGS [R24S]
The protein stability index of the first is lower: 2.85 for the first, 3.01 for the second.

Going from FCASTRLPPTPLLLFPEEEATNGT [R24T] to FCASTRLPPTPLLLFPEEEATNGQ [R24Q], the protein stability index falls from 3.24 to 2.98.

Compared with FCASTRLPPTPLLLFPEEEATNGW [R24W], FCASTRLPPTPLLLFPEEEATNGH [R24H] is higher in protein stability index: 1.34 for the first, 2.76 for the second.

Going from FCASTRLPPTPLLLFPEEEATNGP [R24P] to FCASTRLPPTPLLLFPEEEATNGL [R24L], the protein stability index falls from 3 to 2.09.

FCASTRLPPTPLLLFPEEEATNGI [R24I] showed a protein stability index of 2.46.

— the supplement of paper PMC10567573
